Reference: PMC8452709, “Effects of apolipoprotein E isoform, sex, and diet on insulin BBB pharmacokinetics in mice” (Scientific Reports, 2021)

Columns and labels:
[1] = tested on: blood–brain barrier (BBB); test: 125I-insulin BBB transport, multiple-time regression analysis (Ki); type: in vivo, mice (human E3- and E4-targeted replacement); details: for Ki, linear BBB transport (unidirectional influx rate): 15 mo, iv, albumin-corrected
Experimental: (§1) Ten micrograms of human insulin (Sigma-Aldrich, St. Louis, MO, USA) was diluted in 0.25 M chloride-free sodium phosphate buffer (PB), pH 7.5, and radioactivity labeled with 0.5–1 mCi Na^125I (Perkin Elmer, Waltham, MA, USA) using the chloramine-T (Sigma-Aldrich) method similar to our previously reported methods. […] Protein labelling by ^125I or by ^99mTc isotopes was characterized by 15% trichloroacetic acid (TCA) precipitation.
(§2) Mice were anesthetized with an intraperitoneal injection of 0.1–0.15 ml 40% urethane to minimize pain and distress. […] Blood from the left carotid artery was collected between 0.5 and 10 min after intravenous injection. Mice were immediately decapitated and their whole brains quickly removed and weighed. Each mouse provided a single blood sample and time matched brain sample. The arterial blood was centrifuged at 5400g for 10 min at 4 °C and serum collected. The brains were dissected into regions according to the method described in Ref.[56] and weighed. The levels of radioactivity in serum (50 μl) and brain regions were counted in a gamma counter (Wizard2, Perkin Elmer, Waltham, MA). […] Expt was calculated from the formula:1 Exposuretime=∫0tCptdt/Cpt, where Cp is the level of radioactivity (cpm) in serum at time (t). Expt corrects for the clearance of peptide from the blood. The influx of insulin was calculated by multiple-time regression analysis as described by Patlaket al.[55],[57]:2 Am/Cpt=Ki∫0tCptdt/Cpt+Vi, where Am is level of radioactivity (cpm) per g of brain tissue at time t, Cpt is the level of radioactivity (cpm) per ml arterial serum at time t, Ki (μl/g-min) is the steady-state rate of unidirectional solute influx from blood to brain. Vi (μl/g) is the level of rapid and reversible binding for brain which usually is a combination of vascular space plus any brain endothelial cell receptor binding. The brain/serum (B/S) ratios for insulin were corrected for vascular space by subtracting the corresponding ratio for albumin, yielding a delta B/S ratio. The linear portion of the relation between the delta B/S ratio versus Expt was used to calculate the Ki (μl/g-min) with its standard error term, and the y-intercept determined as representation of the Vi (μl/g)[55].
(§3) As a priori sex differences were expected, male and female data were analyzed separately. Regression analyses and other statistical analyses were performed with Prism 8.0 (GraphPad Software Inc., San Diego, CA, USA) and SPSS (Chicago, IL) software. Brain weight means are reported with their standard error terms and analyzed using two-way analysis of variance (ANOVA) followed by Sidak’s post hoc test when appropriate. For pharmacokinetic studies, the slope of the linear regression lines (Ki), reported with their correlation coefficients (r), and y-intercepts (Vi) were compared statistically using the Prism software, as described.

brain endothelial cell = test: 125I-insulin reversible vascular binding (Vi), y-intercept of multiple-time regression; type: in vivo, mice (human E3- and E4-targeted replacement); details: for Vi, reversible vascular binding: 15 mo, iv, albumin-corrected
Experimental: as §1, §2, §3

[2] = male E4 LFD mice, parietal cortex

Substance: 125I-insulin: human insulin (Sigma-Aldrich) radioactively labeled with Na125I by the chloramine-T method
- Ki, linear BBB transport (unidirectional influx rate) ([1]; male E4 HFD mice, hypothalamus, no significant transport (p > 0.05)): 0.35 µL/g/min
- Ki, linear BBB transport (unidirectional influx rate) ([1]; male E4 HFD mice, pons/medulla): 0.65 µL/g/min
- Ki, linear BBB transport (unidirectional influx rate) ([1]; male E4 HFD mice, striatum, no significant transport (p > 0.05)): -0.12 µL/g/min
- Ki, linear BBB transport (unidirectional influx rate) ([1]; male E4 LFD mice, frontal cortex): 0.65 µL/g/min
- Ki, linear BBB transport (unidirectional influx rate) ([1]; male E4 LFD mice, hippocampus): 1.28 µL/g/min
- Ki, linear BBB transport (unidirectional influx rate) ([1]; male E4 LFD mice, hypothalamus, no significant transport (p > 0.05)): 0.46 µL/g/min
- Ki, linear BBB transport (unidirectional influx rate) ([1]; male E4 LFD mice, midbrain): 0.53 µL/g/min
- Ki, linear BBB transport (unidirectional influx rate) [1, 2]: 0.73 µL/g/min
- Ki, linear BBB transport (unidirectional influx rate) ([1]; male E4 LFD mice, striatum, no significant transport (p > 0.05)): 0.57 µL/g/min
- Whole brain BBB transport rate (Ki) ([1]; males, decreases due to HFD, p = 0.056): did not reach significance
- Vi, reversible vascular binding (brain endothelial cell; female E3 HFD mice, hippocampus): 5.8 µL/g
- Vi, reversible vascular binding (brain endothelial cell; female E3 HFD mice, midbrain): 2.1 µL/g
- Vi, reversible vascular binding (brain endothelial cell; female E3 HFD mice, parietal cortex): 2.3 µL/g
- Vi, reversible vascular binding (brain endothelial cell; female E3 HFD mice, pons/medulla): 4.4 µL/g
- Vi, reversible vascular binding (brain endothelial cell; female E3 LFD mice, frontal cortex): 6.3 µL/g
- Vi, reversible vascular binding (brain endothelial cell; female E3 LFD mice, hippocampus): 5.1 µL/g
- Vi, reversible vascular binding (brain endothelial cell; female E3 LFD mice, hypothalamus): -0.2 µL/g
- Vi, reversible vascular binding (brain endothelial cell; female E3 LFD mice, olfactory bulb): 11.7 µL/g
- Vi, reversible vascular binding (brain endothelial cell; female E3 LFD mice, pons/medulla): 7.9 µL/g
- Vi, reversible vascular binding (brain endothelial cell; female E3 LFD mice, striatum): 4.0 µL/g
- Vi, reversible vascular binding (brain endothelial cell; female E3 LFD mice, thalamus): 8.4 µL/g
- Vi, reversible vascular binding (brain endothelial cell; female E4 HFD mice, frontal cortex): 5.2 µL/g
- Vi, reversible vascular binding (brain endothelial cell; female E4 HFD mice, occipital cortex): 4.1 µL/g
- Vi, reversible vascular binding (brain endothelial cell; female E4 HFD mice, pons/medulla): 3.0 µL/g
- Vi, reversible vascular binding (brain endothelial cell; female E4 LFD mice, hippocampus): 8.8 µL/g
- Vi, reversible vascular binding (brain endothelial cell; female E4 LFD mice, hypothalamus): 4.4 µL/g
- Vi, reversible vascular binding (brain endothelial cell; female E4 LFD mice, midbrain): 5.4 µL/g
- Vi, reversible vascular binding (brain endothelial cell; female E4 LFD mice, occipital cortex): 3.9 µL/g
- Vi, reversible vascular binding (brain endothelial cell; female E4 LFD mice, parietal cortex): 7.9 µL/g
- Vi, reversible vascular binding (brain endothelial cell; female E4 LFD mice, pons/medulla): 9.4 µL/g
- Vi, reversible vascular binding (brain endothelial cell; female E4 LFD mice, striatum): 6.3 µL/g
- Vi, reversible vascular binding (brain endothelial cell; female E4 LFD mice, thalamus): 8.8 µL/g
- Vi, reversible vascular binding (brain endothelial cell; male E3 HFD mice, occipital cortex): 0.2 µL/g
- Vi, reversible vascular binding (brain endothelial cell; male E3 HFD mice, olfactory bulb): 0.4 µL/g
- Vi, reversible vascular binding (brain endothelial cell; male E3 HFD mice, pons/medulla): 1.7 µL/g
- Vi, reversible vascular binding (brain endothelial cell; male E3 HFD mice, thalamus): 2.3 µL/g
- Vi, reversible vascular binding (brain endothelial cell; male E3 LFD mice, frontal cortex): 4.0 µL/g
- Vi, reversible vascular binding (brain endothelial cell; male E3 LFD mice, occipital cortex): 5.0 µL/g
- Vi, reversible vascular binding (brain endothelial cell; male E3 LFD mice, olfactory bulb): 5.9 µL/g
- Vi, reversible vascular binding (brain endothelial cell; male E3 LFD mice, parietal cortex): 5.8 µL/g
- Vi, reversible vascular binding (brain endothelial cell; male E4 HFD mice, pons/medulla): 3.4 µL/g
- Vi, reversible vascular binding (brain endothelial cell; male E4 HFD mice, striatum): 4.2 µL/g
- Vi, reversible vascular binding (brain endothelial cell; male E4 LFD mice, cerebellum): 8.1 µL/g
- Vi, reversible vascular binding (brain endothelial cell; male E4 LFD mice, hypothalamus): 8.0 µL/g
- Vi, reversible vascular binding (brain endothelial cell; male E4 LFD mice, occipital cortex): 4.1 µL/g
- Vi, reversible vascular binding (brain endothelial cell; [2]): 3.4 µL/g
- Vi, reversible vascular binding (brain endothelial cell; male E4 LFD mice, striatum): 4.4 µL/g
- Vi, reversible vascular binding (brain endothelial cell; male E4 LFD mice, thalamus): 4.1 µL/g
- Whole brain reversible vascular binding (Vi, y-axis intercept) (brain endothelial cell; males, between apoE isoform/diet groups, p = 0.002): differences
